Source: PMC3720670, “Function and X-Ray crystal structure of Escherichia coli YfdE” (PLoS ONE, 2013)

How the values were obtained:
[1] = molecular target: UctC (Acetobacter aceti strain 1023) (UniProt A9X6P9); assay: SEC; analytical gel filtration, Superdex 200 Hi-load 16/60, 50 mM Tris-HCl pH 8.0, 100 mM KCl; apparent solution molecular weights from retention times
[2] = substrate: CC(=O)SCCNC(=O)CCNC(=O)[C@H](O)C(C)(C)COP(=O)(O)OP(=O)(O)OC[C@H]1O[C@@H](n2cnc3c(N)ncnc32)[C@H](O)[C@@H]1OP(=O)(O)O; assay: HPLC of oxalyl-CoA formation, Michaelis-Menten fit; type: biochemical, Escherichia coli; details: 50 mM oxalate (subsaturating, value likely lower than true), 50 mM potassium phosphate, pH 6.7, parameter symbol, unit prefix and kcat unit not given, inferred
[3] = molecular target: the molecule itself; assay: SEC; analytical gel filtration, Superdex 200 Hi-load 16/60, 50 mM Tris-HCl pH 8.0, 100 mM KCl; apparent solution molecular weights from retention times
[4] = substrate: CC(=O)SCCNC(=O)CCNC(=O)[C@H](O)C(C)(C)COP(=O)(O)OP(=O)(O)OC[C@H]1O[C@@H](n2cnc3c(N)ncnc32)[C@H](O)[C@@H]1OP(=O)(O)O; assay: HPLC of oxalyl-CoA formation, Michaelis-Menten fit; type: biochemical, Escherichia coli; details: 50 mM oxalate (subsaturating, value likely lower than true), 50 mM potassium phosphate, pH 6.7, parameter symbol, unit prefix and kcat unit not given, inferred; remark: listed apart in the source
From the text: HPLC of oxalyl-CoA formation, Michaelis-Menten fit on H6YfdE

## UctC (from UniProt A9X6P9 1-389) (enzyme)
[1]
  stoichiometry N: 2

B1: YfdE (Escherichia coli K-12) (protein)
chain: MTNNESKGPFEGLLVIDMTHVLNGPFGTQLLCNMGARVIKVEPPGHGDDTRTFGPYVDGQSLYYSFINHGKESVVLDLKNDHDKSIFINMLKQADVLAENFRPGTMEKLGFSWETLQEINPRLIYASSSGFGHTGPLKDAPAYDTIIQAMSGIMMETGYPDAPPVRVGTSLADLCGGVYLFSGIVSALYGREKSQRGAHVDIAMFDATLSFLEHGLMAYIATGKSPQRLGNRHPYMAPFDVFNTQDKPITICCGNDKLFSALCQALELTELVNDPRFSSNILRVQNQAILKQYIERTLKTQAAEVWLARIHEVGVPVAPLLSVAEAIKLPQTQARNMLIEAGGIMMPGNPIKISGCADPHVMPGAATLDQHGEQIRQEFSS
notes: untagged full-length, recombinant in E. coli BL21(DE3), plasmid pJK566 (Arg232 repaired), only partially purified; dimer
[2]; partially pure enzyme
  Km: 17 µM
  kcat: 11 s⁻¹

B2: YfdE fused to an N-terminal hexahistidine tag (H6YfdE) (enzyme, Escherichia coli, UniProt P76518 1-381, looked up)
chain: B1 chain
notes: YfdE, Escherichia coli; yfdE gene amplified from genomic DNA of a strain BW25113 derivative; last residue Ser381; Expressed from pET28a (NdeI/XhoI); The appendage and the first five to six residues are disordered in the crystal; also called acetyl-CoA:oxalate CoA-transferase; ACOCT; source: E. coli C41(DE3), purified (ammonium sulfate, metal-charged nitrilotriacetic acid column); not shown: His6, …
[3]
  stoichiometry N: 2

B3: YfdEH6 (Escherichia coli K-12) (protein)
chain: B1 chain
notes: full-length with C-terminal hexahistidine tag kept (stop codon converted to Ser), pJK594, E. coli C41(DE3)
[2]
  Km: 13 µM
  kcat: 6.9 s⁻¹

B4: H6YfdE (Escherichia coli K-12) (protein)
chain: B1 chain
notes: full-length with N-terminal hexahistidine tag kept, pET28a (pJK593), E. coli C41(DE3); last residue Ser381; dimer
[4]
  Km: 18 µM
  kcat: 12 s⁻¹
